Data set [1] deals with T1, soluble β3GalT5-1 (insect) (Homo sapiens, UniProt Q9Y2C3).
T1 construct: gene B3GALT5; crystal: Phe31-Pro308 stated, Asp41-Pro308 visible
T1 sequence (Q9Y2C3 29-310): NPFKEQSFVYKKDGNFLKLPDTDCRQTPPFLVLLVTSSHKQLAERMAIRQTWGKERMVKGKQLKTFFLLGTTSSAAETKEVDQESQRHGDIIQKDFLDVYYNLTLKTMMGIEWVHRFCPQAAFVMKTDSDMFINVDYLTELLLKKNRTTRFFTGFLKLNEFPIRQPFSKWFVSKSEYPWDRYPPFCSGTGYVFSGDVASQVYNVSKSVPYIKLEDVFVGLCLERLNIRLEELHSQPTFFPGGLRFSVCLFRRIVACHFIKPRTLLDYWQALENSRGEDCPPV
In words: X-ray crystal structure. The data set is classed as binding. The following applies: acceptor site, Mn2+.

In the next data set the target is T2, membrane-bound β3GalT5–1 (Homo sapiens, UniProt Q9Y2C3).
T2 construct: gene B3GALT5; full length M1-V310, C-terminal Flag tag, expressed in HEK293 cells, LMNG-extracted, anti-Flag purified
T2 sequence (Q9Y2C3 1-310): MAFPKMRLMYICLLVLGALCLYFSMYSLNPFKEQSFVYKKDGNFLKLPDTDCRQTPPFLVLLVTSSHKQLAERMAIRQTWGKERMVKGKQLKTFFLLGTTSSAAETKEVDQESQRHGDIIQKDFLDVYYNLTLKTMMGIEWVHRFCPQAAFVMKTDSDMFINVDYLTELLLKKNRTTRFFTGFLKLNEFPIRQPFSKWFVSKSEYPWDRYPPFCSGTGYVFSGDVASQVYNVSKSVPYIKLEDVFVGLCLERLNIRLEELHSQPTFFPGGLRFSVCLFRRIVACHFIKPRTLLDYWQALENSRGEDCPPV
In words: galactosyltransferase activity. The conditions noted are these: UDP-Gal, with or without 1% LMNG. The data set is classed as biochemical.

Another data set has as its target T3, membrane-bound β3GalT5–2 (Homo sapiens, UniProt A0A0A0MS93).
T3 construct: gene B3GALT5; full length, 314 residues, C-terminal Flag tag, expressed in HEK293 cells, LMNG-extracted, anti-Flag purified
T3 sequence (A0A0A0MS93 1-314): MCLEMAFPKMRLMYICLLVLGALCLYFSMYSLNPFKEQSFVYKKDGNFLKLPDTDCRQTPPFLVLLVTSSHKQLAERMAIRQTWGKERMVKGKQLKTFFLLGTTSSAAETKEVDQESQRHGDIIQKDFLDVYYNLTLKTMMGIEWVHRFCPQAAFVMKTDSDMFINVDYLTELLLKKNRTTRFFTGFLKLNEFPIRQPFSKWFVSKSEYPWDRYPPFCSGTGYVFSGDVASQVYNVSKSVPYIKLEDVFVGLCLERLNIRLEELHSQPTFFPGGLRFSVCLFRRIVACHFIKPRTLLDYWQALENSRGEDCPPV
In words: galactosyltransferase activity. The data set is classed as biochemical. The conditions noted are these: UDP-Gal, with or without 1% LMNG.

Substrate in data set [2]: C=CCO[C@@H]1O[C@H](CO)[C@@H](O[C@@H]2O[C@H](CO)[C@H](O[C@H]3O[C@H](CO)[C@H](O)[C@H](O[C@@H]4O[C@H](CO)[C@H](O)[C@H](O)[C@H]4NC(C)=O)[C@H]3O)[C@H](O)[C@H]2O)[C@H](O)[C@H]1O
As to the kind of experiment: UDP release, Michaelis-Menten fit. The data set is classed as biochemical, Homo sapiens. The conditions noted are these: 0.1 mM UDP-Gal, HEPES, 0.1 mM MnCl2, 0-4 mM substrate; pH 7.0. The source says:
UDP release, Michaelis-Menten fit on soluble β3GalT5-1 (insect)

Substrate in data set [3]: C=CCO[C@@H]1O[C@H](CO)[C@@H](O[C@@H]2O[C@H](CO)[C@H](O[C@H]3O[C@H](CO)[C@H](O)[C@H](O[C@@H]4O[C@H](CO)[C@H](O)[C@H](O)[C@H]4NC(C)=O)[C@H]3O)[C@H](O)[C@H]2O)[C@H](O)[C@H]1O
In words: UDP release, Michaelis-Menten fit. The format is biochemical, Homo sapiens. The following applies: 10 mM UDP-sugar (UDP-Gal) fixed, 20 mM HEPES pH 7.4, 0.1 mM MnCl2. The source says: (§1) UDP release, Michaelis-Menten fit on soluble β3GalT5-1 (HEK293)

Substrate in data set [4]: O=c1ccn([C@@H]2O[C@H](COP(=O)(O)OP(=O)(O)O[C@H]3O[C@H](CO)[C@H](O)[C@H](O)[C@H]3O)[C@@H](O)[C@H]2O)c(=O)[nH]1
In words: UDP release, Michaelis-Menten fit. The format is biochemical, Homo sapiens. The following applies: 2 mM Gb4 glycan fixed, 20 mM HEPES pH 7.4, 0.1 mM MnCl2.
Excerpt: as §1

The nature of data set [5]: galactosyltransferase activity assay (Figure S6E). The following applies: control: untreated Sf9-expressed enzyme (paucimannose glycoforms).
Data set [6] is described as follows: Michaelis–Menten kinetics by UDP release. The following applies: glycan changed form; control: Sf9 insect cell-expressed enzyme (paucimannose).

Substitutions are numbered along the chain they refer to. Numbers in names are those of the source.

In the case of `CC(=O)N[C@H]1[C@H](O[C@H]2[C@@H](O)[C@@H](CO)O[C@H](O[C@@H]3[C@H](O)[C@@H](O)[C@H](O[C@H]4[C@H](O)[C@@H](O)C(O)O[C@@H]4CO)O[C@@H]3CO)[C@@H]2O)O[C@H](CO)[C@H](O)[C@@H]1O` (stereo partly shown) [Gb4 glycan], in data set [1], the X-ray crystal structure result is reported as “the acceptor substrate Gb4 glycan is represented by pink sticks”. Besides, the galactosyltransferase activity entry on membrane-bound β3GalT5–1 and at membrane-bound β3GalT5–2 was “regardless of whether Gb4 or Gb4 glycan was used as a substrate” throughout.

B1: soluble β3GalT5-1 (insect) (Homo sapiens) (protein)
chain: T1 sequence (Q9Y2C3 29-310)
notes: crystal: Phe31-Pro308 stated, Asp41-Pro308 visible
By Km is commonly meant the concentration of substrate that gives half-maximal velocity. One may read the kcat as the number of substrate molecules converted per active site and unit of time at saturation. Usually kcat/Km stands for the turnover number divided by the Michaelis constant. Consider B1, for which, in data set [2], the Km came to 660 ± 400 µM, the kcat worked out at 0.0583 ± 0.00667 s⁻¹ and the kcat/Km was 88.3 ± 16.7 M⁻¹ s⁻¹.

B2: soluble β3GalT5-1 (HEK293) (Homo sapiens; Q69A) (protein)
chain: T1 sequence (Q9Y2C3 29-310) with Q41A
notes: soluble luminal domain N29-V310, no TM; expressed in HEK293 cells, complex-type N-glycans
In the case of B2, in data set [3], the Michaelis constant (Km) is 1210 ± 300 µM, the turnover number (kcat) is 0.012 ± 0.00117 s⁻¹ and the kcat/Km came to 10 ± 3.33 M⁻¹ s⁻¹. In addition, in data set [4], the Km is 300 ± 50 µM, the turnover number (kcat) came out at 0.0497 ± 0.00333 s⁻¹ and the kcat/Km was 165 ± 63.3 M⁻¹ s⁻¹.

B3: soluble β3GalT5-1 (HEK293) (Homo sapiens; S66A) (protein)
chain: T1 sequence (Q9Y2C3 29-310) with S38A
notes: as for B2
Take B3: in data set [3], the Km was found to be 1200 ± 200 µM, the kcat was determined as 0.0777 ± 0.005 s⁻¹ and the kcat/Km is 64.8 ± 31.7 M⁻¹ s⁻¹. Besides, in data set [4], the Km was 350 ± 100 µM, the kcat stood at 0.276 ± 0.0417 s⁻¹ and the kcat/Km worked out at 781 ± 408 M⁻¹ s⁻¹.

B4: soluble β3GalT5-1 (HEK293) (Homo sapiens; Q69A/S66A) (protein)
chain: T1 sequence (Q9Y2C3 29-310) with S38A, Q41A
notes: as for B2
In the case of B4, in data set [3], the Km was found to be 1110 ± 300 µM, the kcat turned out to be 0.00783 ± 0.000833 s⁻¹ and the kcat/Km came to 7 ± 3.33 M⁻¹ s⁻¹. Moreover, in data set [4], the Km came out at 320 ± 90 µM, the kcat amounted to 0.0273 ± 0.00333 s⁻¹ and the specificity constant (kcat/Km) amounted to 156 ± 45 M⁻¹ s⁻¹.

B5: soluble β3GalT5-1 (HEK293) (Homo sapiens; Q69M) (protein)
chain: T1 sequence (Q9Y2C3 29-310) with Q41M
notes: as for B2
Take B5: in data set [3], the Km turned out to be 420 ± 300 µM, the kcat amounted to 0.0107 ± 0.00167 s⁻¹ and the kcat/Km stood at 25.3 ± 8.33 M⁻¹ s⁻¹. Also, in data set [4], the Km was determined as 210 ± 50 µM, the kcat was 0.0585 ± 0.005 s⁻¹ and the kcat/Km came out at 282 ± 103 M⁻¹ s⁻¹.

B6: soluble β3GalT5-1 (HEK293) (Homo sapiens; Q69M/S66A) (protein)
chain: T1 sequence (Q9Y2C3 29-310) with S38A, Q41M
notes: as for B2
On to B6, for which, in data set [3], the Km turned out to be 1650 ± 400 µM, the kcat was determined as 0.0248 ± 0.00167 s⁻¹ and the kcat/Km stood at 15 ± 6.67 M⁻¹ s⁻¹. For the same molecule, in data set [4], the Km turned out to be 270 ± 60 µM, the kcat was 0.0773 ± 0.00667 s⁻¹ and the kcat/Km was found to be 284 ± 113 M⁻¹ s⁻¹.

B7: soluble β3GalT5-1 (HEK293) (Homo sapiens) (protein)
chain: T1 sequence (Q9Y2C3 29-310)
notes: as for B2
For B7, in data set [3], the Km amounted to 1400 ± 200 µM, the kcat came out at 0.0448 ± 0.00333 s⁻¹ and the kcat/Km was 32 ± 16.7 M⁻¹ s⁻¹. Moreover, in data set [4], the Km was determined as 140 ± 40 µM, the kcat was 0.125 ± 0.0117 s⁻¹ and the kcat/Km stood at 870 ± 293 M⁻¹ s⁻¹.

B8: β3GalT5–1 (soluble domain): PNGase F (protein)
parent chain: T2 sequence (Q9Y2C3 1-310)
On to B8, for which the “enzymatic_activity, fold_change” value in data set [5] (glycan lost) was “decreases”.

B9: β3GalT5–1 (soluble domain): expression in HEK293 (complex-type glycoforms) (protein)
parent chain: T2 sequence (Q9Y2C3 1-310)
Take B9: the “enzymatic_activity, kcat_Km” value in data set [6] is “no change, 5.2 ± 3.0 vs 5.3 ± 1.0”.

B10: β3GalT5–1 (soluble domain): kifunensine (high mannose glycoforms) (protein)
parent chain: T2 sequence (Q9Y2C3 1-310)
For the molecule B10, the “enzymatic_activity, fold_change” value in data set [5] (glycan changed form) is given as “increases”.

B11: β3GalT5–1 (soluble domain): kifunensine then Endo-H (mono-GlcNAc) (protein)
parent chain: T2 sequence (Q9Y2C3 1-310)
For the molecule B11, the “enzymatic_activity, fold_change” value in data set [5] (glycan lost) is given as “increases”.
